Reference: publication doi:10.1101/2022.01.11.475884 (bioRxiv, 2022)

Molecular target: T1, purified Mfn2 (human, UniProt O95140 1-757)
T1 sequence (looked up): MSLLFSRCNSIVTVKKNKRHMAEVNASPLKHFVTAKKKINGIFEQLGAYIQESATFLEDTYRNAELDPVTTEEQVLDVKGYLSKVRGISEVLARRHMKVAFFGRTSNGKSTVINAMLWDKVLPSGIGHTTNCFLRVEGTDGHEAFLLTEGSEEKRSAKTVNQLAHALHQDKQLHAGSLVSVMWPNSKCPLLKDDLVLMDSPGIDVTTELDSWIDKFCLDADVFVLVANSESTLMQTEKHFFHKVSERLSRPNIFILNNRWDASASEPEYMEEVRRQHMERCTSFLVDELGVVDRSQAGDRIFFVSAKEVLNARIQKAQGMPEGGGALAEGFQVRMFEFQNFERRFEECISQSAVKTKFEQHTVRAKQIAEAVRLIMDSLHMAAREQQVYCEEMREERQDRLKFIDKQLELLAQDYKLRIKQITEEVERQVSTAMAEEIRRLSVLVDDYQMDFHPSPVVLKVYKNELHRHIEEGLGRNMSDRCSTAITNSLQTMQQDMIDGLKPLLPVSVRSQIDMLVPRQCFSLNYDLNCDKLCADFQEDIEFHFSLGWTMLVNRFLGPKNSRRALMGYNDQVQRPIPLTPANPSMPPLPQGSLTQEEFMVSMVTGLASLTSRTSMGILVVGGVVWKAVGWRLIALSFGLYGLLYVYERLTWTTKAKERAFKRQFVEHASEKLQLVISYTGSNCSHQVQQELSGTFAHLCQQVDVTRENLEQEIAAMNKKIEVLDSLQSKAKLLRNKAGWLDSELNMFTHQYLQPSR
Test: pull-down

B1: purified and biotinylated TAK1 (enzyme, human, UniProt O43318 1-606, looked up)
chain: MSTASAASSSSSSSAGEMIEAPSQVLNFEEIDYKEIEVEEVVGRGAFGVVCKAKWRAKDVAIKQIESESERKAFIVELRQLSRVNHPNIVKLYGACLNPVCLVMEYAEGGSLYNVLHGAEPLPYYTAAHAMSWCLQCSQGVAYLHSMQPKALIHRDLKPPNLLLVAGGTVLKICDFGTACDIQTHMTNNKGSAAWMAPEVFEGSNYSEKCDVFSWGIILWEVITRRKPFDEIGGPAFRIMWAVHNGTRPPLIKNLPKPIESLMTRCWSKDPSQRPSMEEIVKIMTHLMRYFPGADEPLQYPCQYSDEGQSNSATSTGSFMDIASTNTSNKSDTNMEQVPATNDTIKRLESKLLKNQAKQQSESGRLSLGASRGSSVESLPPTSEGKRMSADMSEIEARIAATTAYSKPKRGHRKTASFGNILDVPEIVISGNGQPRRRSIQDLTVTGTEPGQVSSRSSSPSVRMITTSGPTSEKPTRSHPWTPDDSTDTNGSDNSIPMAYLTLDHQLQPLAPCPNSKESMAVFEQHCKMAQEYMKVQTEIALLLQRKQELVAELDQDEKDQQNTSRLVQEHKKLLDENKSLSTYYQQCKKQLEVIRSQQQKRQGTS
modifications: biotinylated
B1: binds.
